Assay results: patent US20180362668A1 (JIANGSU ALPHAMAB BIOPHARMACEUTICALS, published 2018)

Columns and labels:
[1] = target: the molecule itself; test: non-reducing SDS-PAGE densitometry of Protein A-purified co-transfection product; chain A:chain B vectors 4:1
Description: (§1) The cotransfection ratio of recombinant expression vector of the chain A to that of the chain B was 4:1, 1:1 and 1:4.

[2] = target: the molecule itself; test: non-reducing SDS-PAGE densitometry of Protein A-purified co-transfection product; chain A:chain B vectors 1:1
Description: as §1

[3] = target: the molecule itself; test: non-reducing SDS-PAGE of Protein A-purified co-transfection product; chain A:chain B vectors 4:1
Description: (§2) The respective transient transfection products were obtained through Protein A affinity chromatography.

[4] = target: the molecule itself; test: non-reducing SDS-PAGE of Protein A-purified co-transfection product; chain A:chain B vectors 1:4
Description: as §2

[5] = target: the molecule itself; test: non-reducing SDS-PAGE densitometry of Protein A-purified co-transfection product; chain A:chain B vectors 1:1; remark: listed apart in the source
[6] = target: the molecule itself; test: as above; remark: listed apart in the source
Description: The cotransfection ratio of recombinant expression vector of the chain A to that of the chain B was 1:1.

[7] = target: the molecule itself; test: non-reducing SDS-PAGE densitometry of Protein A-purified co-transfection product; chain A:chain B vectors 1:4
Description: as §1

[8] = target: the molecule itself; test: non-reducing SDS-PAGE densitometry of Protein A-purified co-transfection product; chain A:chain B vectors 1:1; remark: listed apart in the source
Description: (§3) The cotransfection ratio of recombinant expression vector of the chain A to that of the chain B was 4:1, 1:1 and 1:4. The transiently expressed culture supernatant was collected after 5-6 days of cultivation.

[9] = target: the molecule itself; test: non-reducing SDS-PAGE densitometry of Protein A-purified co-transfection product; chain A:chain B vectors 4:1; remark: listed apart in the source
Description: as §3

[10] = target: the molecule itself; test: non-reducing SDS-PAGE densitometry of Protein A-purified co-transfection product; chain A:chain B vectors 1:4; remark: listed apart in the source
Description: as §3

Protein | ScFv-Fc homodimer (%) [1] | ScFv-Fc homodimer (%) [2] | ScFv-Fc homodimer (%) [3] | ScFv-Fc homodimer (%) [4] | ScFv-Fc homodimer (%) [5] | ScFv-Fc homodimer (%) [6] | ScFv-Fc homodimer (%) [7] | ScFv-Fc homodimer (%) [8] | ScFv-Fc homodimer (%) [9] | ScFv-Fc homodimer (%) [10]
ScFv-Fc fusion protein chain A with Y349C + T366W + K409A (Fc fusion, Positions are EU index; also called combination 4 chain A) EVQLLESGGGVVQPGRSLRLSCIASGFTFSSYPMTWVRQAPGKGLEWVASISYDGSYKYKADSMKGRLTISRDNSKNTLYLEMNSLTAEDTAVYYCARTAFFNAYDFWGQGTLVTVSSASTKGPSVGGGGSGGGGSEIVMTQSPATLSVSPGERATLSCRASQSVRSNLAWYQQKPGQAPRLLIYAASTRATGIPARFSGSGSGTEFTLTISSLQSEDFAVYYCQQYNEWFRTSGQGTKVEIKRDKTHTCPPCPAPELLGGPSVFLFPPKPKDTLMISRTPEVTCVVVDVSHENPEVKFNWYVDGVEVHNAKTKPREEQYNSTYRVVSVLTVLHQDWLNGKEYKCKVSNKALPAPIEKTISKAKGQPREPQVCTLPPSRDELTKNQVSLWCLVKGFYPSDIAVEWESNGQPENNYKTTPPVLDSDGSFFLYSALTVDKSRWQQGNVFSCSVMHEALHNHYTQKSLSLSPGK | 46% | 13% | 46% | 4% | 10% | 21% | < 1% | – | – | –
ScFv-Fc fusion protein chain A with Y349C + T366W + F405K (Fc fusion, Positions are EU index; also called combination 2 chain A) EVQLLESGGGVVQPGRSLRLSCIASGFTFSSYPMTWVRQAPGKGLEWVASISYDGSYKYKADSMKGRLTISRDNSKNTLYLEMNSLTAEDTAVYYCARTAFFNAYDFWGQGTLVTVSSASTKGPSVGGGGSGGGGSEIVMTQSPATLSVSPGERATLSCRASQSVRSNLAWYQQKPGQAPRLLIYAASTRATGIPARFSGSGSGTEFTLTISSLQSEDFAVYYCQQYNEWFRTSGQGTKVEIKRDKTHTCPPCPAPELLGGPSVFLFPPKPKDTLMISRTPEVTCVVVDVSHENPEVKFNWYVDGVEVHNAKTKPREEQYNSTYRVVSVLTVLHQDWLNGKEYKCKVSNKALPAPIEKTISKAKGQPREPQVCTLPPSRDELTKNQVSLWCLVKGFYPSDIAVEWESNGQPENNYKTTPPVLDSDGSFKLYSKLTVDKSRWQQGNVFSCSVMHEALHNHYTQKSLSLSPGK | – | – | 23% | < 1% | 10% | 17% | – | 9% | 28% | < 1%
ScFv-Fc fusion protein chain A with Y349C + T366W (Fc fusion, also called combination KH chain A; combination 1 chain A) EVQLLESGGGVVQPGRSLRLSCIASGFTFSSYPMTWVRQAPGKGLEWVASISYDGSYKYKADSMKGRLTISRDNSKNTLYLEMNSLTAEDTAVYYCARTAFFNAYDFWGQGTLVTVSSASTKGPSVGGGGSGGGGSEIVMTQSPATLSVSPGERATLSCRASQSVRSNLAWYQQKPGQAPRLLIYAASTRATGIPARFSGSGSGTEFTLTISSLQSEDFAVYYCQQYNEWFRTSGQGTKVEIKRDKTHTCPPCPAPELLGGPSVFLFPPKPKDTLMISRTPEVTCVVVDVSHENPEVKFNWYVDGVEVHNAKTKPREEQYNSTYRVVSVLTVLHQDWLNGKEYKCKVSNKALPAPIEKTISKAKGQPREPQVCTLPPSRDELTKNQVSLWCLVKGFYPSDIAVEWESNGQPENNYKTTPPVLDSDGSFFLYSKLTVDKSRWQQGNVFSCSVMHEALHNHYTQKSLSLSPGK | – | – | 52% | 10% | – | – | – | – | – | –
ScFv-Fc fusion protein chain A with Y349C + T366W + K409E (Fc fusion, Positions are EU index; also called combination 3 chain A) EVQLLESGGGVVQPGRSLRLSCIASGFTFSSYPMTWVRQAPGKGLEWVASISYDGSYKYKADSMKGRLTISRDNSKNTLYLEMNSLTAEDTAVYYCARTAFFNAYDFWGQGTLVTVSSASTKGPSVGGGGSGGGGSEIVMTQSPATLSVSPGERATLSCRASQSVRSNLAWYQQKPGQAPRLLIYAASTRATGIPARFSGSGSGTEFTLTISSLQSEDFAVYYCQQYNEWFRTSGQGTKVEIKRDKTHTCPPCPAPELLGGPSVFLFPPKPKDTLMISRTPEVTCVVVDVSHENPEVKFNWYVDGVEVHNAKTKPREEQYNSTYRVVSVLTVLHQDWLNGKEYKCKVSNKALPAPIEKTISKAKGQPREPQVCTLPPSRDELTKNQVSLWCLVKGFYPSDIAVEWESNGQPENNYKTTPPVLDSDGSFFLYSELTVDKSRWQQGNVFSCSVMHEALHNHYTQKSLSLSPGK | – | – | – | – | 25% | – | – | – | – | –
